Measured values: article PMC6139572
pKd: −log10 of the molar value.

Tests used:
[1] = molecular target: isolated native thin filaments (UniProt P68032)
[2] = molecular target: myosin S2Δ, the first 126 amino acids of myosin sub-fragment 2 (rat heart) (rat); assay: MST; as a2 (pH 7, 50 mmol/liter KCl); 25 °C
[3] = molecular target: myosin S2Δ, the first 126 amino acids of myosin sub-fragment 2 (rat heart) (rat); assay: MST; as a2 (pH 7, 50 mmol/liter KCl); 30 °C
[4] = molecular target: myosin S2Δ, the first 126 amino acids of myosin sub-fragment 2 (rat heart) (rat); assay: MST; as a2 but 180 mmol/liter KCl; pH 7; 30 °C
[5] = molecular target: myosin S2Δ, the first 126 amino acids of myosin sub-fragment 2 (rat heart) (rat); assay: MST; as a2 (pH 7, 50 mmol/liter KCl); biphasic binding curve of Fig. S3, the temperature of the curve is not given
[6] = molecular target: isolated native thin filaments (UniProt P68032); assay: co-sedimentation; high-velocity co-sedimentation of C1mC2 constructs with isolated native thin filaments; performed as described in ref. 15
[7] = molecular target: myosin S2Δ, the first 126 amino acids of myosin sub-fragment 2 (rat heart) (rat); assay: MST; Monolith NT.115; 100 nmol/liter Alexa 647–myosin S2Δ fixed, cMyBP-C construct titrated; 20 mmol/liter MOPS pH 7, 1 mmol/liter EDTA, 50 mmol/liter KCl, 1 mmol/liter DTT, 0.05% Tween 20; 21 °C

isometric force of demembranated rat ventricular trabeculae in relaxing solution (pCa 9) with 40 μmol/liter C1mC2, as percent of that during full Ca2+ activation [1] [%]	pKd [2]	pKd [3]	pKd [4]	Kd of the additional low-affinity binding interaction [5] [µM]	pKd [6]	pKd [7]	Substance
57	4.23	4.67	3.44	400	4.64	3.97	C1mC2, unphosphorylated N-terminal fragment of rat cardiac myosin-binding protein-C containing the Ig-domains C1 and C2 and the intervening m-domain (domain or fragment)
					4.24		PKA tris-phosphorylated C1mC2 of rat cardiac myosin-binding protein-C (domain or fragment)
